From FireProtDB (doi:10.1074/jbc.m112.408906)

B1: Myocilin, Q99972 (parent)
chain: MRFFCARCCSFGPEMPAVQLLLLACLVWDVGARTAQLRKANDQSGRCQYTFSVASPNESSCPEQSQAMSVIHNLQRDSSTQRLDLEATKARLSSLESLLHQLTLDQAARPQETQEGLQRELGTLRRERDQLETQTRELETAYSNLLRDKSVLEEEKKRLRQENENLARRLESSSQEVARLRRGQCPQTRDTARAVPPGSREVSTWNLDTLAFQELKSELTEVPASRILKESPSGYLRSGEGDTGCGELVWVGEPLTLRTAETITGKYGVWMRDPKPTYPYTQETTWRIDTVGTDVRQVFEYDLISQFMQGYPSKVHILPRPLESTGAVVYSGSLYFQGAESRTVIRYELNTETVKAEKEIPGAGYHGQFPYSWGGYTDIDLAVDEAGLWVIYSTDEAKGAIVLSKLNPENLELEQTWETNIRKQSVANAFIICGTLYTVSSYTSADATVNFAYDTGTGISKTLTIPFKNRYKYSSMIDYNPLEKKLFAWDNLNMVTYDIKLSKM

Variants of: B1
Details: Homo sapiens, pH 6, Thermal, CD, Sodium acetate 10mM, reversible: no, structure 4WXQ, whole UniProt chain shown

Variant | Tm (CaCl2 1mM) [°C] | change of melting temperature, mutant - wild type (higher = more stable) (CaCl2 1mM) [°C] | Tm (CaCl2 10mM) [°C] | change of melting temperature, mutant - wild type (higher = more stable) (CaCl2 10mM) [°C]
D384A | 42.5 | -10.5 |  | 
D380A | 46.6 | -6.4 | 45.1 | -14.5
G246R | 42.5 | -10.5 | 50.6 | -9
V426F | 41.5 | -11.5 | 49.9 | -9.7
R272G | 41 | -12 | 48.6 | -11
Y437H | 40.3 | -12.7 | 48.6 | -11
G364V | 45 | -8 | 51.9 | -7.7
T377M | 44.3 | -8.7 | 50.6 | -9
A427T | 48.3 | -4.7 | 55.2 | -4.4
I499F | 42.8 | -10.2 | 50.4 | -9.2
E323K | 44 | -9 | 50.3 | -9.3
K423E | 34.2 | -18.8 | 43.2 | -16.4
G252R | 43 | -10 | 51.5 | -8.1
E385A | 39.7 | -13.3 | 49.7 | -9.9
C433R | 40.4 | -12.6 | 49.4 | -10.2
I477S | 39.7 | -13.3 | 48.2 | -11.4
I477N | 37.7 | -15.3 |  | 
P481L | 45.5 | -7.5 | 51.2 | -8.4
G367R | 42.7 | -10.3 | 50.9 | -8.7
S502P | 41 | -12 | 49.9 | -9.7
N480K | 42.4 | -10.6 | 48.1 | -11.5
D273A | 21.7 | -31.3 | 21.1 | -38.5
